From paper PMC6200863, “Hydrogen Peroxide-Based Fluorometric Assay for Real-Time Monitoring of SAM-Dependent Methyltransferases” (Frontiers in Bioengineering and Biotechnology, 2018)

Substrate: O=C(O)c1ccccc1O
Experiment: Mtn/XOD/HRP-coupled Amplex Red fluorescence, initial rates, non-linear regression
Format: biochemical, Clarkia breweri
Conditions: 0.5 mM SAM, 5 mM MgCl2, 1 mM KCl, pH 7.5, 30°C, coupling enzymes possibly rate-limiting

B1: SA MTase (salicylic acid methyltransferase) (Clarkia breweri) (protein)
chain: MDVRQVLHMKGGAGENSYAMNSFIQRQVISITKPITEAAITALYSGDTVTTRLAIADLGCSSGPNALFAVTELIKTVEELRKKMGRENSPEYQIFLNDLPGNDFNAIFRSLPIENDVDGVCFINGVPGSFYGRLFPRNTLHFIHSSYSLMWLSQVPIGIESNKGNIYMANTCPQSVLNAYYKQFQEDHALFLRCRAQEVVPGGRMVLTILGRRSEDRASTECCLIWQLLAMALNQMVSEGLIEEEKMDKFNIPQYTPSPTEVEAEILKEGSFLIDHIEASEIYWSSCTKDGDGGGSVEEEGYNVARCMRAVAEPLLLDHFGEAIIEDVFHRYKLLIIERMSKEKTKFINVIVSLIRKSD
Km: 6.8 (±1.0) μM
kcat: 0.98 (±0.3) min^-1
